Assay [1] addresses T1, human BCMA amino acid residues 1-54 (linear and conformational CLIPS peptide libraries) (human, UniProt Q02223 1-54).
T1 sequence: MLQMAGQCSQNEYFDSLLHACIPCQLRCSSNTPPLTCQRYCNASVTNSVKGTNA
Kind of assay: CLIPS peptide array ELISA. As for the experimental part: (§1) Epitopes recognized, e.g., specifically bound to, by exemplary anti-BCMA scFv clones (BCMA-1, BCMA-5, BCMA-9, BCMA-23, BCMA-25, BCMA-26, BCMA-52 and BCMA-55 anti-BCMA scFvs), were assessed using full discontinuous epitope mapping by Chemical Linkage of Peptides onto Scaffolds (CLIPS; Pepscan Presto BV, Lelystad, The Netherlands; see, e.g., Timmerman et al., (2007) J. Mol. Recognit. 20: 283-329). Mapping was carried out using anti-BCMA scFv clones, such as those fused with mouse Fc (scFv-mFc).
(§2) Linear and conformational peptide libraries of amino acid residues 1-54 of human BCMA (set forth as amino acid residues 1-54 of SEQ ID NO:367) were generated based on a combinatorial matrix design. Linear peptides and structural mimetics including single loop, α-helix, β-turn, combinatorial and linear disulfide bridge mimics, and discontinuous epitope mimics were used, along with positive and negative control peptides, on an amino-functionalized solid support.
(§3) Affinities for binding to the peptides in the epitope library were determined using ELISA. The peptide arrays were incubated with a solution containing the scFv overnight at 4° C. Affinity information was used in iterative screens to define the sequence and conformation of epitopes. Heat maps of affinity information for two or more loops were generated.
On the technique in general: An ELISA detects its analyte on a solid surface through an enzyme-linked reagent.

Assay [2] has as its target T2, human BCMA (B-cell maturation antigen) on cells (human, UniProt Q02223 1-184).
T2 construct: whole, on cells; also called hBCMA; hBCMA/HEK293 cell line
T2 sequence (looked up): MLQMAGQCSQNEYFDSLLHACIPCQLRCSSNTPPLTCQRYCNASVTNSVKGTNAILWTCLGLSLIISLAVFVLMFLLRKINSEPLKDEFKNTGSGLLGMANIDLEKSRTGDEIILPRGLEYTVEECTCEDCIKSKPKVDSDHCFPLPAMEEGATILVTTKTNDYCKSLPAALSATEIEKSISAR
Kind of assay: flow cytometry, hBCMA-overexpressing HEK293 compared with OPM2 and RPMI-8226 cells. As for the experimental part: Binding of exemplary scFv clones to hBMCA-overexpressing HEK293 cells as compared to OPM2 and RPMI-8226 cell lines that express moderate levels of endogenous BCMA was assessed.
For orientation: Flow cytometry measures light scatter and fluorescence of single cells or particles in a stream.

Assay [3] concerns the target T3, BCMA peptide 30SNTPPLTCQR39 (human).
T3 construct: Peptide of the CLIPS library; recognised in a linear form
T3 peptide: SNTPPLTCQR
In words: CLIPS peptide array ELISA. Here is the method:
as §1, §2, §3

Assay [4] concerns the target T2, human BCMA (B-cell maturation antigen) …. Kind of assay: flow cytometry on hBCMA-expressing HEK293 cells.

B1: BCMA-26 anti-BCMA scFv (scFv)
scFv: EVQLVESGGGLVKPGGSLRLSCAASGFTFSDYYMSWIRQAPGKGLEWVSYISSSGSTIYYADSVKGRFTISRDNAKNSLYLQMNSLRAEDTAVYYCAKVDGPPSFDIWGQGTMVTVSSGGGGSGGGGSGGGGSSYVLTQPPSVSVAPGQTARITCGANNIGSKSVHWYQQKPGQAPMLVVYDDDDRPSGIPERFSGSNSGNTATLTISGVEAGDEADYFCHLWDRSRDHYVFGTGTKLTVL
notes: VH-(G4S)3-VL scFv
Regarding B1, in assay [1], the binding result is on record as “binds”.

B2: BCMA-55-scFv-mFc (Fc fusion)
chain: QSALTQPASVSASPGQSIAISCTGTSSDVGWYQQHPGKAPKLMIYEDSKRPSGVSNRFSGSKSGNTASLTISGLQAEDEADYYCSSNTRSSTLVFGGGTKLTVLGSRGGGGSGGGGSGGGGSLEMAEVQLVQSGAEMKKPGASLKLSCKASGYTFIDYYVYWMRQAPGQGLESMGWINPNSGGTNYAQKFQGRVTMTRDTSISTAYMELSRLRSDDTAMYYCARSQRDGYMDYWGQGTLVTVSS
notes: scFv fused with mouse Fc; The order scFv then Fc follows the label; also called BCMA-55 anti-BCMA scFv; not shown: mouse Fc (mFc)
For the molecule B2, the binding result in assay [1] was “binds”.

B3: BCMA-52-scFv-mFc (Fc fusion)
chain: SYELTQPPSASGTPGQRVTMSCSGTSSNIGSHSVNWYQQLPGTAPKLLIYTNNQRPSGVPDRFSGSKSGTSASLAISGLQSEDEADYYCAAWDGSLNGLVFGGGTKLTVLGSRGGGGSGGGGSGGGGSLEMAEVQLVQSGAEVKKPGESLKISCKGSGYSFTSYWIGWVRQMPGKGLEWMGIIYPGDSDTRYSPSFQGHVTISADKSISTAYLQWSSLKASDTAMYYCARYSGSFDNWGQGTLVTVSS
notes: scFv fused with mouse Fc; The order scFv then Fc follows the label; also called BCMA-52 anti-BCMA scFv; not shown: mouse Fc (mFc)
Consider B3, for which the binding result in assay [1] is “binds”.

B4: BCMA-1 anti-BCMA scFv (scFv)
scFv: QVQLVQSGGGLVQPGRSLRLSCTASGFTFGDYAMSWFRQAPGKGLEWVGFIRSKAYGGTTEYAASVKGRFTISRDDSKSIAYLQMNSLKTEDTAVYYCAAWSAPTDYWGQGTLVTVSSGGGGSGGGGSGGGGSDIVMTQSPDSLSVSPGERATISCKSSQSVLSTSNNKNYLAWYQQKPGQPPRLLLYWASTREAGVPDRFSGSGSGTDFTLTISSLQAEDVAVYYCQQYFSSPYTFGHGTKLEIK
notes: VH-(G4S)3-VL scFv
B4: the binding result in assay [2] and in assay [3] was “binds” throughout.

B5: BCMA-5 anti-BCMA scFv (scFv)
scFv: QVQLVQSGGGLVQPGRSLRLSCTASGFTFGDYAMSWFRQAPGKGLEWVGFIRSKAYGGTTEYAASVKGRFTISRDDSKSIAYLQMNSLKTEDTAVYYCAAWSAPTDYWGQGTLVTVSSGGGGSGGGGSGGGGSDIVMTQSPDSLAVSLGERATINCKSSQSVLYSSNNKNYLAWYQQKPGQPPKLLIYWASTRESGVPDRFSGSGSGTDFTLTISSLQAEDVAVYYCQQYYSTPWTFGQGTKVDIK
notes: VH-(G4S)3-VL scFv
With B5, the binding result in assay [2] and in assay [3] was “binds” throughout.

B6: BCMA-16 anti-BCMA scFv (scFv)
scFv: EVQLVQSGPEVKKPGTSVKVSCKASGFTFTSSAMQWVRQARGQRLEWIGWIVVGSGNTNYAQKFQERVTITRDMSTSTAYMELSSLRSEDTAVYYCAAAPYYDILTGYYLWGQGTLVTVSSGGGGSGGGGSGGGGSQSALTQPPSASGTPGQRVTISCSGSGSNIGSNDVSWYQQIPGTAPKLLIYWNDQRPSGVPDRFSGSKSGTSASLAISGLQSEDEADYYCASWDDSLSGWVFGGGTKLTVL
notes: VH-(G4S)3-VL scFv
In the case of B6, in assay [4], the binding result is on record as “no binding”.

Source of the values: patent US20200392236A1 (JUNO THERAPEUTICS, published 2020).
